Drawing on the supplement of paper PMC10567573, this text covers protein stability index for 94 variants.

The labels stand for the following.
B1: C8orf76 (parent)
chain: YCAKLCEPQWFYEETESSDDVEVL
B2: PBXIP1 (parent)
chain: FGEDGIFRHDRLRFRDFVDALEDS
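Note: lentivirally expressed fusions sorted by FACS into six bins by GFP to DsRed ratio, PSI derived from sequencing read proportions per bin multiplied by bin number.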

In the first data set the parent is B1. Put plainly: protein stability index of a GFP-peptide fusion (GPS, HEK-293T) (PSI 1-6); higher = more stable. The following applies: c terminus: a fixed tail appended.
Take YCAKLCEPQWFYEETESSDDVEVT [L24T]: the protein stability index was 2.11.

As to YCAKLCEPQWFYEETESSDDVEVE [L24E], the protein stability index was found to be 2.62. Regarding YCAKLCEPQWFYEETESSDDVEVQ [L24Q], the protein stability index stood at 1.86.

As for YCAKLCEPQWFYEETESSDDVEVN [L24N], the protein stability index turned out to be 2.36. On the same count and under the same terms, the result for YCAKLCEPQWFYEETESSDDVEVW [L24W] reads 1.85. For the variant YCAKLCEPQWFYEETESSDDVEVV [L24V], the protein stability index came out at 2.31. On the same count and under the same terms, with YCAKLCEPQWFYEETESSDDVEVR [L24R] the figure was 2.78; with YCAKLCEPQWFYEETESSDDVEVF [L24F], 2.43; with YCAKLCEPQWFYEETESSDDVEVM [L24M], 2.65.

With YCAKLCEPQWFYEETESSDDVEVC [L24C], the protein stability index amounted to 2.9. YCAKLCEPQWFYEETESSDDVEVY [L24Y]: the protein stability index was 1.76. Still for that read-out and setting: with YCAKLCEPQWFYEETESSDDVEVS [L24S] the figure was 2.66; with YCAKLCEPQWFYEETESSDDVEVG [L24G], 2.54. On to YCAKLCEPQWFYEETESSDDVEVP [L24P], for which the protein stability index came out at 2.69.

In the case of YCAKLCEPQWFYEETESSDDVEVI [L24I], the protein stability index was determined as 2.73. On the same count and under the same terms, with YCAKLCEPQWFYEETESSDDVEVH [L24H] the figure was 2.15; with YCAKLCEPQWFYEETESSDDVEVD [L24D], 2.56. As to YCAKLCEPQWFYEETESSDDVEVA [L24A], the protein stability index was found to be 2.45. Still for that read-out and setting: the result for YCAKLCEPQWFYEETESSDDVEVK [L24K] reads 3; that for YCAKLCEPQWFYEETESSDDVEHL [V23H], 2.62; that for YCAKLCEPQWFYEETESSDDVEKL [V23K], 1.96. The same measure, in the same setting: the result for YCAKLCEPQWFYEETESSDDVEML [V23M] reads 2.48; that for YCAKLCEPQWFYEETESSDDVEFL [V23F], 2.45; that for YCAKLCEPQWFYEETESSDDVEIL [V23I], 2.08. For YCAKLCEPQWFYEETESSDDVEPL [V23P], the protein stability index came out at 2.87. In the case of YCAKLCEPQWFYEETESSDDVELL [V23L], the protein stability index amounted to 2.05. Same read-out and setting: the result for YCAKLCEPQWFYEETESSDDVEWL [V23W] reads 1.98; that for YCAKLCEPQWFYEETESSDDVEQL [V23Q], 2.8; that for YCAKLCEPQWFYEETESSDDVENL [V23N], 3.18. On to YCAKLCEPQWFYEETESSDDVETL [V23T], for which the protein stability index was 2.17.

For YCAKLCEPQWFYEETESSDDVERL [V23R], the protein stability index is 2.44. With YCAKLCEPQWFYEETESSDDVESL [V23S], the protein stability index amounted to 2.53.

Take YCAKLCEPQWFYEETESSDDVEGL [V23G]: the protein stability index came out at 2.39. Same read-out and setting: the result for YCAKLCEPQWFYEETESSDDVEYL [V23Y] reads 2.78.

The variants in a further data set derive from B2. The description is as above. The following applies: c terminus: a fixed tail appended.
FGECGIFRHDRLRFRDFVDALEDS [D4C]: the protein stability index was 2.52. Consider FGEAGIFRHDRLRFRDFVDALEDS [D4A], for which the protein stability index stood at 1.62.

Regarding FGEEGIFRHDRLRFRDFVDALEDS [D4E], the protein stability index was determined as 3.08. On the same count and under the same terms, the result for FNEDGIFRHDRLRFRDFVDALEDS [G2N] reads 3.09. In the case of FLEDGIFRHDRLRFRDFVDALEDS [G2L], the protein stability index is 2.96. Turning to FMEDGIFRHDRLRFRDFVDALEDS [G2M], the protein stability index is 2.91. Turning to FPEDGIFRHDRLRFRDFVDALEDS [G2P], the protein stability index was 2.61.

For the variant FCEDGIFRHDRLRFRDFVDALEDS [G2C], the protein stability index came out at 2.83.

With FEEDGIFRHDRLRFRDFVDALEDS [G2E], the protein stability index is 3.73.

As to FDEDGIFRHDRLRFRDFVDALEDS [G2D], the protein stability index was determined as 3.36. On the same count and under the same terms, with FWEDGIFRHDRLRFRDFVDALEDS [G2W] the figure was 2.95; with FYEDGIFRHDRLRFRDFVDALEDS [G2Y], 3.09.

As to FTEDGIFRHDRLRFRDFVDALEDS [G2T], the protein stability index was determined as 2.35. As to FHEDGIFRHDRLRFRDFVDALEDS [G2H], the protein stability index was found to be 2.09. Take FREDGIFRHDRLRFRDFVDALEDS [G2R]: the protein stability index is 2.69. With FKEDGIFRHDRLRFRDFVDALEDS [G2K], the protein stability index came to 2.81. Still for that read-out and setting: the result for FSEDGIFRHDRLRFRDFVDALEDS [G2S] reads 2.48. Take FVEDGIFRHDRLRFRDFVDALEDS [G2V]: the protein stability index amounted to 2.26. On the same count and under the same terms, with FAEDGIFRHDRLRFRDFVDALEDS [G2A] the figure was 1.63. The same measure, in the same setting: the result for FFEDGIFRHDRLRFRDFVDALEDS [G2F] reads 2.75. Take FQEDGIFRHDRLRFRDFVDALEDS [G2Q]: the protein stability index was 2.66. In the case of FIEDGIFRHDRLRFRDFVDALEDS [G2I], the protein stability index came to 1.97. Consider CGEDGIFRHDRLRFRDFVDALEDS [F1C], for which the protein stability index stood at 2.39. In the case of LGEDGIFRHDRLRFRDFVDALEDS [F1L], the protein stability index is 3.14.

TGEDGIFRHDRLRFRDFVDALEDS [F1T]: the protein stability index came to 3.08. Take AGEDGIFRHDRLRFRDFVDALEDS [F1A]: the protein stability index amounted to 4.02. Still for that read-out and setting: with QGEDGIFRHDRLRFRDFVDALEDS [F1Q] the figure was 4.12; with VGEDGIFRHDRLRFRDFVDALEDS [F1V], 3.77. Regarding YGEDGIFRHDRLRFRDFVDALEDS [F1Y], the protein stability index was determined as 2.72. Turning to WGEDGIFRHDRLRFRDFVDALEDS [F1W], the protein stability index came out at 3.1. Turning to IGEDGIFRHDRLRFRDFVDALEDS [F1I], the protein stability index stood at 3.6. Same read-out and setting: the result for PGEDGIFRHDRLRFRDFVDALEDS [F1P] reads 4.16. For the variant RGEDGIFRHDRLRFRDFVDALEDS [F1R], the protein stability index was found to be 3.78.

For DGEDGIFRHDRLRFRDFVDALEDS [F1D], the protein stability index came to 4.29. The same measure, in the same setting: the result for NGEDGIFRHDRLRFRDFVDALEDS [F1N] reads 3.81; that for GGEDGIFRHDRLRFRDFVDALEDS [F1G], 3.59. On the same count and under the same terms, the result for HGEDGIFRHDRLRFRDFVDALEDS [F1H] reads 3.76. Same read-out and setting: the result for MGEDGIFRHDRLRFRDFVDALEDS [F1M] reads 3.24; that for SGEDGIFRHDRLRFRDFVDALEDS [F1S], 3.74. As to KGEDGIFRHDRLRFRDFVDALEDS [F1K], the protein stability index is 2.64.

On to EGEDGIFRHDRLRFRDFVDALEDS [F1E], for which the protein stability index was found to be 4.29. Turning to FGADGIFRHDRLRFRDFVDALEDS [E3A], the protein stability index is 2.75. For FGGDGIFRHDRLRFRDFVDALEDS [E3G], the protein stability index came to 2.11.

In the case of FGTDGIFRHDRLRFRDFVDALEDS [E3T], the protein stability index amounted to 2.28. Still for that read-out and setting: the result for FGFDGIFRHDRLRFRDFVDALEDS [E3F] reads 2.18; that for FGYDGIFRHDRLRFRDFVDALEDS [E3Y], 3.04. The same measure, in the same setting: the result for FGHDGIFRHDRLRFRDFVDALEDS [E3H] reads 2.89; that for FGNDGIFRHDRLRFRDFVDALEDS [E3N], 1.99; that for FGWDGIFRHDRLRFRDFVDALEDS [E3W], 2.18. The same measure, in the same setting: the result for FGSDGIFRHDRLRFRDFVDALEDS [E3S] reads 2.02; that for FGIDGIFRHDRLRFRDFVDALEDS [E3I], 2.91. Consider FGCDGIFRHDRLRFRDFVDALEDS [E3C], for which the protein stability index was 2.17. Same read-out and setting: with FGQDGIFRHDRLRFRDFVDALEDS [E3Q] the figure was 2.91; with FGMDGIFRHDRLRFRDFVDALEDS [E3M], 2.45. Turning to FGRDGIFRHDRLRFRDFVDALEDS [E3R], the protein stability index came to 3.02. The same measure, in the same setting: with FGVDGIFRHDRLRFRDFVDALEDS [E3V] the figure was 2.05; with FGDDGIFRHDRLRFRDFVDALEDS [E3D], 3.01. As for FGKDGIFRHDRLRFRDFVDALEDS [E3K], the protein stability index is 2.52. Still for that read-out and setting: the result for FGLDGIFRHDRLRFRDFVDALEDS [E3L] reads 2.44; that for FGPDGIFRHDRLRFRDFVDALEDS [E3P], 2.28.
